Reference: US10182986B2, “Method of delivering therapeutics and imaging agents to the brain by nanoparticles that cross the blood brain barrier” (CALIFORNIA INSTITUTE OF TECHNOLOGY, priority 2013, dated 2019)

Experiment: Tf-DAK-PEG-OPSS degradation in pH 5.5 buffer followed by MALDI-TOF
Assay type: physicochemical
Settings: 37° C., crude mixture
Procedure: At various time points, aliquots were removed, diluted 1:10 in 10 mM NaH2PO4 pH 8.0 and frozen on CO2(s). Once the last aliquot was removed, all samples were melted and immediately measured by MALDI-TOF using a sinapinic acid matrix.

## Tf-DAK-PEG-OPSS: human holo-Tf conjugated through diamino ketal (DAK) linker to PEG-orthopyridyl disulfide
  Time by which nearly all the PEG has cleaved: ≤ 2 h
